Reference: US20220153844A1 (INVENRA, published 2022)

Legend:
[1] = molecular target: T1, muCD25 transiently expressed on Expi293 cells (Expi293-muCD25) (mouse, UniProt P01590 22-268); experiment: flow cytometry, biotinylated mouse IL-2 on Expi293 muCD25 cells, streptavidin-PE
T1 construct: whole, on cells; also called murine CD25; single positive CD25+ cells
T1 sequence (looked up): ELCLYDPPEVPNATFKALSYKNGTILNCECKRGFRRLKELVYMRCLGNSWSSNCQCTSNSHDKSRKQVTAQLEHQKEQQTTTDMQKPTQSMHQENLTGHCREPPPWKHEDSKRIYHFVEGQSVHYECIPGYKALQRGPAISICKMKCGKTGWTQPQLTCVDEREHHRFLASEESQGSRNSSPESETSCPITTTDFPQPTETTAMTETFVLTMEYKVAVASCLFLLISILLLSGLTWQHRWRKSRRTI

[2] = molecular target: T2, mouse CTLA4 (target of muSNIPER and anti-muCTLA4) (mouse, UniProt P09793 36-161, limits assumed, biotinylated in the blocking assay); experiment: BLI, biotinylated mouse CTLA4 (B-mTarget2) on streptavidin sensor, then antibody or CD86 ligand
T2 construct: also called Target 2

[3] = molecular target: T3, CTLA4 (antigen of Examples 10 and 13) (UniProt P16410 36-161, limits assumed); experiment: BLI (Octet); antigen immobilised, B-Body as analyte
T3 construct: Immobilised antigen in the Octet assay
Source text: In each instance, the antigen is immobilized and the B-Body is the analyte.

[4] = molecular target: T4, huCTLA4 (biotinylated human CTLA4 for BLI) (human, UniProt P16410 36-161, limits assumed, biotinylated); experiment: BLI steady state analysis; biotinylated antigen on streptavidin sensor, bispecific 2 µM to 31.25 nM
T4 construct: also called Target 2

[5] = molecular target: T5, mouse CD25 + CTLA4 together (Table 29) (mouse, UniProt P01590 22-236; P09793 36-161, limits assumed); experiment: bivalent affinity to both CD25 and CTLA4, summary in Table 29; bivalent, CD25 + CTLA4 together
T5 construct: the format is not described

[6] = molecular target: T6, mouse CD25 (target of muSNIPER in Table 29) (mouse, UniProt P01590 22-236, limits assumed); experiment: monovalent affinity, summary in Table 29 (text: biolayer interferometry; data not shown); monovalent, CD25 alone
T6 construct: also called muCD25
T6 sequence (looked up): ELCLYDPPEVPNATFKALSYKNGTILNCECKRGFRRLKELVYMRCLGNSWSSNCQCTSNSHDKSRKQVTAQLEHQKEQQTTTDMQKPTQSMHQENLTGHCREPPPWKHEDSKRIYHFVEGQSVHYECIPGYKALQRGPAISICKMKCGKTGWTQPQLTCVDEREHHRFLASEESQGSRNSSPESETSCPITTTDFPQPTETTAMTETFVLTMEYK

[7] = molecular target: T2, mouse CTLA4 (target of muSNIPER and …); experiment: monovalent affinity, summary in Table 29 (text: biolayer interferometry; data not shown); monovalent, CTLA4 alone

T2 sequence (P09793 36-161 limits assumed): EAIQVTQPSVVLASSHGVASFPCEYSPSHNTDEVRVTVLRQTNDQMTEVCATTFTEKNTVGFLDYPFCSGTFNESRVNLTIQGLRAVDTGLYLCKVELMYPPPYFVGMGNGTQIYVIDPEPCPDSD
T5 sequence (P09793 36-161 limits assumed, one chain of several): as the sequence (P09793 36-161 limits assumed) above
T4 sequence (P16410 36-161 limits assumed): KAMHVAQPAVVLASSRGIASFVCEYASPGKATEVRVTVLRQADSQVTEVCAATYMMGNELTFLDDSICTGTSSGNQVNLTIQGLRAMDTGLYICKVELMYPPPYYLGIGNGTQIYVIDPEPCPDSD
T3 sequence (P16410 36-161 limits assumed): as above

B1: biotinylated mouse recombinant IL-2 ligand (ligand, UniProt P04351 21-169, looked up)
chain: APTSSSTSSSTAEAQQQQQQQQQQQQHLEQLLMDLQELLSRMENYRNLKLPRMLTFKFYLPKQATELKDLQCLEDELGPLRHVLDLTQSKSFQLEDAENFISNIRVTVVKLKGSDNTFECQFDDESATVVDFLRRWIAFCQSIISTSPQ
modifications: biotinylated
[1]
  binding result: binds

B2: anti-muCTLA4, parental bivalent monospecific monoclonal antibody (antibody, IgG1, V domains shown)
VH: EVQLVESGGGLVQPGGSLRLSCAASGFTFSSYYIHWVRQAPGKGLEWVASISSYADYTDYADSVKGRFTISADTSKNTAYLQMNSLRAEDTAVYYCARQSYYGLDYWGQGTLVTVSS
VL: DIQMTQSPSSLSASVGDRVTITCRASQSVSSAVAWYQQKPGKAPKLLIYSASSLYSGVPSRFSGSRSGTDFTLTISSLQPEDFATYYCQQLSRGPSTFGQGTKVEIK
notes: Parent antibodies of the discovery campaign are in a human full-length IgG1 format; copies: 2 + 2
[2]
  binding result: binds

B3: bivalent bispecific B-Body “BC1” (bispecific antibody)
chain 1: not shown
chain 2: EVQLVESGGGLVQPGGSLRLSCAASGFTFSDYDIHWVRQAPGKGLEWVGDITPYDGTTNYADSVKGRFTISADTSKNTAYLQMNSLRAEDTAVYYCARLVGEIATGFDYWGQGTLVTVSSASPREPQVYTDPPSRDELTKNQVSLTCLVKGFYPSDIAVEWESNGQPENNYKTTPPVLDSDGSFFLYSKLTVDKSRWQQGNVFSCSVMHEALHNHYTQKSLSLSGEC
chain 3: not shown
chain 4: QVQLVESGGGVVQPGRSLRLDCKASGITFSNSGMHWVRQAPGKGLEWVAVIWYDGSKRYYADSVKGRFTISRDNSKNTLFLQMNSLRAEDTAVYYCATNDDYWGQGTLVTVSSASTKGPSVFPLAPSSKSTSGGTAALGCLVKDYFPEPVTVSWNSGALTSGVHTFPAVLQSSGLYSLSSVVTVPSSSLGTQTYICNVNHKPSNTKVDKKVEPPKSC
notes: A:F site specific for Antigen A, H:L site (nivolumab) specific for human PD1
[3]
  binding result: no binding

B4: BC1 1×1 B-Body huSNIPER 19×8 binding molecule (bispecific antibody)
chain 1: not shown
chain 2: EVQLVESGGGLVQPGGSLRLSCAASGFTFSGYWIHWVRQAPGKGLEWVAAITSRDSYTYYADSVKGRFTISADTSKNTAYLQMNSLRAEDTAVYYCARGSYLGSAFDYWGQGTLVTVSSASPREPQVYTDPPSRDELTKNQVSLTCLVKGFYPSDIAVEWESNGQPENNYKTTPPVLDSDGSFFLYSKLTVDKSRWQQGNVFSCSVMHEALHNHYTQKSLSLSGEC
chain 3: SDIQMTQSPSSLSASVGDRVTITCRASQSVSSAVAWYQQKPGKAPKLLIYSASSLYSGVPSRFSGSRSGTDFTLTISSLQPEDFATYYCQQYSSQPATFGQGTKVEIKRTVAAPSVFIFPPSDEQLKSGTASVVCLLNNFYPREAKVQWKVDNALQSGNSQESVTEQDSKDSTYSLSSTLTLSKADYEKHKVYACEVTHQGLSSPVTKSFNRGECDKTHTCPPCPAPELLGGPSVFLFPPKPKDTLMISRTPEVTCVVVDVSHEDPEVKFNWYVDGVEVHNAKTKPREEQYNSTYRVVSVLTVLHQDWLNGKEYKCKVSNKALPAPIEKTISKAKGQPREPQVCTLPPSREEMTKNQVSLSCAVKGFYPSDIAVEWESNGQPENNYKTTPPVLDSDGSFFLVSKLTVDKSRWQQGNVFSCSVMHEALHNHYTQKSLSLSPGK
chain 4: EVQLVESGGGLVQPGGSLRLSCAASGFTFSSYYIHWVRQAPGKGLEWVAKIQPKGGYTYYADSVKGRFTISADTSKNTAYLQMNSLRAEDTAVYYCARSYYYRPHAFDYWGQGTLVTVSSASTKGPSVFPLAPSSKSTSGGTAALGCLVKDYFPEPVTVSWNSGALTSGVHTFPAVLQSSGLYSLSSVVTVPSSSLGTQTYICNVNHKPSNTKVDKKVEPPKSC
[4]
  Kd: 19 nM

B5: Mouse Surrogate SNIPER antibody (muSNIPER) (bispecific antibody)
chain 1: not shown
chain 2: EVQLVESGGGLVQPGGSLRLSCAASGFTFSSYYIHWVRQAPGKGLEWVASISSYADYTDYADSVKGRFTISADTSKNTAYLQMNSLRAEDTAVYYCARQSYYGLDYWGQGTLVTVSSASPREPQVYTDPPSRDELTKNQVSLTCLVKGFYPSDIAVEWESNGQPENNYKTTPPVLDSDGSFFLYSKLTVDKSRWQQGNVFSCSVMHEALHNHYTQKSLSLSGEC
chain 3: DIQMTQSPSSLSASVGDRVTITCRASQSVSSAVAWYQQKPGKAPKLLIYSASSLYSGVPSRFSGSRSGTDFTLTISSLQPEDFATYYCQQWYTSPLTFGQGTKVEIKRTVAAPSVFIFPPSDEQLKSGTASVVCLLNNFYPREAKVQWKVDNALQSGNSQESVTEQDSKDSTYSLSSTLTLSKADYEKHKVYACEVTHQGLSSPVTKSFNRGECDKTHTCPPCPAPELLGGPSVFLFPPKPKDTLMISRTPEVTCVVVDVSHEDPEVKFNWYVDGVEVHNAKTKPREEQYNSTYRVVSVLTVLHQDWLNGKEYKCKVSNKALPAPIEKTISKAKGQPREPQVCTLPPSREEMTKNQVSLSCAVKGFYPSDIAVEWESNGQPENNYKTTPPVLDSDGSFFLVSKLTVDKSRWQQGNVFSCSVMHEALHNHYTQKSLSLSPGK
chain 4: EVQLVESGGGLVQPGGSLRLSCAASGFTFRQYFIHWVRQAPGKGLEWVAAIHPDSDFTYYADSVKGRFTISADTSKNTAYLQMNSLRAEDTAVYYCARGGVAIESGYALDYWGQGTLVTVSSASTKGPSVFPLAPSSKSTSGGTAALGCLVKDYFPEPVTVSWNSGALTSGVHTFPAVLQSSGLYSLSSVVTVPSSSLGTQTYICNVNHKPSNTKVDKKVEPPKSC
notes: Chains 1 and 2 form the CTLA4 arm, chains 3 and 4 the CD25 arm; BC1 scaffold; also called mSNIPER; muSINPER
[5]
  Kd: < 5 nM
[6]
  Kd: > 300 nM
[7]
  Kd: > 100 nM
